This note sets out measurements from patent US20250186594A1 (BRIGHT PEAK THERAPEUTICS, published 2025).

The chains are these.
B1: IL-18 variant SEQ ID NO: 242 (N-terminal G, E6K, V11I, C38A, K53A, T63A, C76A, C127A) (ligand)
chain: GYFGKLKSKLSIIRNLNDQVLFIDQGNRPLFEDMTDSDARDNAPRTIFIISMYADSQPRGMAVAISVKCEKISTLSAENKIISFKEMNPPDNIKDTKSDIIFFQRSVPGHDNKMQFESSSYEGYFLAAEKERDLFKLILKKEDELGDRSIMFTVQNED
B2: IL-18 variant SEQ ID NO: 244 (N-terminal G, E6K, V11I, C38A, M51G, K53A, T63A, C76A, C127A) (ligand)
chain: B1 chain with M52G
B3: IL-18 variant SEQ ID NO: 30 (E6K, V11I, C38A, K53A, T63A, C76A, C127A) (ligand)
chain: YFGKLKSKLSIIRNLNDQVLFIDQGNRPLFEDMTDSDARDNAPRTIFIISMYADSQPRGMAVAISVKCEKISTLSAENKIISFKEMNPPDNIKDTKSDIIFFQRSVPGHDNKMQFESSSYEGYFLAAEKERDLFKLILKKEDELGDRSIMFTVQNED
B4: IL-18 variant SEQ ID NO: 207 (V11I, C38A, M51G, K53A, C76A, C127A) (ligand)
chain: B3 chain with K6E, M51G, A63T
B5: IL-18 variant SEQ ID NO: 239 (E6K, V11I, C38A, M51G, K53A, T63A, C76A, C127A) (ligand)
chain: B3 chain with M51G
B6: IL-18 variant SEQ ID NO: 57 (E6K, C38S, K53A) (ligand)
chain: B3 chain with I11V, A38S, A63T, A76C, A127C
B7: IL-18 variant SEQ ID NO: 62 (E6K, C38A, K53A, C127A) (ligand)
chain: B3 chain with I11V, A63T, A76C
B8: IL-18 variant SEQ ID NO: 61 (E6K, C38A, K53A, C76A) (ligand)
chain: B3 chain with I11V, A63T, A127C
B9: IL-18 variant SEQ ID NO: 59 (E6K, C38A, K53A) (ligand)
chain: B3 chain with I11V, A63T, A76C, A127C
B10: IL-18 variant SEQ ID NO: 60 (E6K, C38Q, K53A) (ligand)
chain: B3 chain with I11V, A38Q, A63T, A76C, A127C
B11: IL-18 variant SEQ ID NO: 63 (E6K, C38A, K53A, C76A, C127A) (ligand)
chain: B3 chain with I11V, A63T
B12: IL-18 variant SEQ ID NO: 30 with 30 kDa PEG (E6K, V11I, C38A, K53A, T63A, C76A, C127A, C68-30kPEG) (ligand)
chain: B3 chain
modifications: 30 kDa PEG on Cys 68 (C68-30kPEG)
notes: also called 30 + PEG30; 30 + PEG
B13: IL-18 variant SEQ ID NO: 241 (N-terminal 4xG, E6K, V11I, C38A, K53A, T63A, C76A, C127A) (ligand)
chain: GGGGYFGKLKSKLSIIRNLNDQVLFIDQGNRPLFEDMTDSDARDNAPRTIFIISMYADSQPRGMAVAISVKCEKISTLSAENKIISFKEMNPPDNIKDTKSDIIFFQRSVPGHDNKMQFESSSYEGYFLAAEKERDLFKLILKKEDELGDRSIMFTVQNED
B14: IL-18 variant SEQ ID NO: 61 with 30 kDa PEG (E6K, C38A, K53A, C76A, C68-30kPEG) (ligand)
chain: B3 chain with I11V, A63T, A127C
modifications: 30 kDa PEG on Cys 68 (C68-30kPEG)
notes: also called 61 + PEG

Changes are numbered by the printed parent chain. Numbers in names are those of the source.

The first experiment concerns the target T1, IL-18 receptor (IL-18R) on HEK-Blue IL18R reporter cells (UniProt Q13478 19-541; O95256 20-599, limits assumed).
T1 sequence (looked up) 1: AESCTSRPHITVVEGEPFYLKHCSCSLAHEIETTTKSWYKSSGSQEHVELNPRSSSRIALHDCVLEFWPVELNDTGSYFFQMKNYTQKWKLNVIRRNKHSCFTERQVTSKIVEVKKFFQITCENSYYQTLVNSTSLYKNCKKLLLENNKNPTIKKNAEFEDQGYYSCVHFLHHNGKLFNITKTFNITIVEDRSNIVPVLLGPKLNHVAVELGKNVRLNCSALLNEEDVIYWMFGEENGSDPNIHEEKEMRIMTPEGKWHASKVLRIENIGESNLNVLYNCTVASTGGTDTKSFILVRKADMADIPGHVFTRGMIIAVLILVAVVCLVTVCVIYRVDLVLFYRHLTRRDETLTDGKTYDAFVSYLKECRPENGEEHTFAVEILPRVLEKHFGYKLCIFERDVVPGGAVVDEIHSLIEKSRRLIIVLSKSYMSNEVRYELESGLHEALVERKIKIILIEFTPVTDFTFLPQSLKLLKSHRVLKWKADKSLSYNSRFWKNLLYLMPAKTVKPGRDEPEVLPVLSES
T1 sequence (looked up) 2: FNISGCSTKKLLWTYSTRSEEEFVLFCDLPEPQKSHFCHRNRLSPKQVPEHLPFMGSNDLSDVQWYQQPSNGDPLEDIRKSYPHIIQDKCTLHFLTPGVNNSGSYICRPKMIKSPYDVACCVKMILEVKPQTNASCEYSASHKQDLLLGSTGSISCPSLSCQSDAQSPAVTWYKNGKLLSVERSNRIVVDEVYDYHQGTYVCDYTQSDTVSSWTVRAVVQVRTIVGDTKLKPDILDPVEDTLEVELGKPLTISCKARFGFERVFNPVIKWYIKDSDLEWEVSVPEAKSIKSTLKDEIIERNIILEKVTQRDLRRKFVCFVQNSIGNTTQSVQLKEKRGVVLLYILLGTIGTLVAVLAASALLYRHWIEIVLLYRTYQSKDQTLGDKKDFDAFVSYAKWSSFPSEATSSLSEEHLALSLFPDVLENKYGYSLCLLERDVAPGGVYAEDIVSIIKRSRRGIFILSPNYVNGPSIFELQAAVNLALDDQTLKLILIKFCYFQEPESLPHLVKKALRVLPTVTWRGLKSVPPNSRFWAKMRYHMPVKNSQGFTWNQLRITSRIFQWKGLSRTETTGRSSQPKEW
Put plainly: cell-based or functional assay.
Turning to B1, the “EC50, HEK-Blue IL18R reporter” value is 1.68 nM.
Same read-out and setting: then B2, with 14 nM; and B3, with 0.053 nM; and B4, with 0.8 nM.
With B5, the “EC50, HEK-Blue IL18R reporter” value came to 0.1 nM.
The same measure, in the same setting: as for B6, the figure is 0.53 nM; as for B7, 0.17 nM; as for B8, 0.084 nM.
Still for that read-out and setting: then B9, with 0.268 nM.
The same measure, in the same setting: then B10, with 0.203 nM.
B11: the “EC50, HEK-Blue IL18R reporter” value was 0.0139 nM.
For the molecule B12, the “EC50, HEK-Blue IL18R reporter” value is 0.23 nM.
Same read-out and setting: then B13, with 2.5 nM.

A further experiment addresses T1, IL-18 receptor (IL-18R) on HEK-Blue …. The experiment can be described thus: cell-based or functional assay. The source holds these as a separate data set.
With B1, the “EC50 (read off the curve); SEAP reporter in HEK-Blue IL18R cells (OD 620 nM)” value (“EC50 (read off the curve); SEAP reporter” below) is roughly 2 pM.
On the same count and under the same terms, as for B2, the figure is roughly 10 pM.
Consider B3, for which the “EC50 (read off the curve); SEAP reporter” value is roughly 0.05 pM.
Turning to B4, the “EC50 (read off the curve); SEAP reporter” value is roughly 4 pM.
Same read-out and setting: then B5, with roughly 0.1 pM; and B9, with roughly 0.3 pM; and B13, with roughly 3 pM.

For a further experiment, the target named is T2, Fc fused human IL-18Rα (human, UniProt Q13478 19-329, limits assumed).
T2 construct: also called IL-18Rα monomer; human IL-18 receptor alpha (CD218a); not shown: Fc
T2 sequence (looked up): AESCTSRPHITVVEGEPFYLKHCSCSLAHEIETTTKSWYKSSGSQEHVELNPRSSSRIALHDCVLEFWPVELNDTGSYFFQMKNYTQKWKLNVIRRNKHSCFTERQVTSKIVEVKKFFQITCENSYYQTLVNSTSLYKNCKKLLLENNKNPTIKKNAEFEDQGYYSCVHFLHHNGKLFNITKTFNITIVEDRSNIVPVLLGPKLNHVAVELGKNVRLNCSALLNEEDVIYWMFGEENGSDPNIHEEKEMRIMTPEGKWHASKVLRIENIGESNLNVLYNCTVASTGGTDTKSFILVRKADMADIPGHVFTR
Put plainly: SPR, Fc-IL-18Rα captured, 1:1 fit. As to the method: (§1) The interaction of the wild type and of modified IL-18 polypeptides with human IL-18 receptor subunits are measured with Surface Plasmon Resonance (SPR) technology. Anti-human IgG antibodies are bound by amine coupling onto a CM5 chip to capture 6 µg/mL of Fc fused human IL-18Rα, […] of Fc fused human IL-18Rβ, or […] of Fc fused human IL-18BP isoform a (IL-18BPa) for 30 min before capture. In other settings, […] of alpha and beta IL-18 receptors are mixed and pre-incubated for 30 min before capture of the alpha/beta heterodimer IL-18 receptor.
(§2) The kinetic binding of the IL-18 analytes are measured with a Biacore 8K instrument in two fold serial dilutions starting at […] down to 0.98 nM. Regeneration of the surface back to amine coupled anti IgG antibody is done after every concentration of analyte. To measure the protein association to the receptors, the samples are injected with a flow rate of […] for 60 s, followed by 300 s buffer only to detect the dissociation. The used running buffer is 1×PBS with 0.05% Tween20. The relative response units (RU, Y-axis) are plotted against time (s, X-axis) and analyzed in a kinetic 1:1 binding model for the monomer receptor binding and for the binding to the IL-18BP. A kinetic heterogenous ligand fit model is applied for the alpha/beta heterodimer binding.
The Kd is the equilibrium constant for the complex coming apart. A lower Kd goes with higher affinity. One may read the koff as a measure of how fast the partners let go of each other. A low value points to a long-lived complex. The kon is a measure of how fast the partners come together. For the molecule B3, the Kd was determined as 30.3 nM, the off-rate constant (koff) turned out to be 0.0536 s⁻¹ and the kon turned out to be 1.77e+06 M⁻¹ s⁻¹.
Taken in the same sequence, the figures for B14 were roughly 1000 nM, 0.0288 s⁻¹ and 28700 M⁻¹ s⁻¹.
B6: binding was put at a Kd of 75 nM, the koff turned out to be 0.0133 s⁻¹ and the on-rate (kon) was 95200 M⁻¹ s⁻¹.
Taken in the same sequence, the figures for B7 were 63.9 nM, 0.0424 s⁻¹ and 664000 M⁻¹ s⁻¹.
In turn, B8 showed a Kd of 30.4 nM, a koff of 0.0674 s⁻¹ and a kon of 2.22e+06 M⁻¹ s⁻¹.
For the molecule B9, binding was put at a Kd of 17.8 nM, the dissociation rate constant (koff) is 0.0165 s⁻¹ and the association rate constant (kon) came out at 1.77e+06 M⁻¹ s⁻¹.
Regarding B10, the equilibrium dissociation constant (Kd) was 9.85 nM, the koff was 0.0102 s⁻¹ and the on-rate (kon) was 1.03e+06 M⁻¹ s⁻¹.
Molecule B11 gave an equilibrium dissociation constant (Kd) of 42.2 nM, a koff of 0.976 s⁻¹ and an on-rate (kon) of 2.31e+07 M⁻¹ s⁻¹.
Take B12: the Kd amounted to 770 nM, the off-rate constant (koff) came to 0.0842 s⁻¹ and the on-rate constant (kon) came out at 125000 M⁻¹ s⁻¹.

A further experiment has as its target T3, IL-18Rα/β heterodimer (Fc fused human IL-18Rα mixed with Fc fused human IL-18Rβ) (human, UniProt Q13478 19-329; O95256 20-356, limits assumed).
T3 construct: Alpha and beta Fc fusions were mixed and pre-incubated for 30 min before capture on anti-human IgG; also called alpha/beta heterodimer IL-18 receptor; heterodimeric human IL-18 receptor alpha (CD218a) and IL-18R accessory protein (IL-18RAP/CDw218b); not shown: Fc
T3 sequence (looked up) 1: T2 sequence (looked up)
T3 sequence (looked up) 2: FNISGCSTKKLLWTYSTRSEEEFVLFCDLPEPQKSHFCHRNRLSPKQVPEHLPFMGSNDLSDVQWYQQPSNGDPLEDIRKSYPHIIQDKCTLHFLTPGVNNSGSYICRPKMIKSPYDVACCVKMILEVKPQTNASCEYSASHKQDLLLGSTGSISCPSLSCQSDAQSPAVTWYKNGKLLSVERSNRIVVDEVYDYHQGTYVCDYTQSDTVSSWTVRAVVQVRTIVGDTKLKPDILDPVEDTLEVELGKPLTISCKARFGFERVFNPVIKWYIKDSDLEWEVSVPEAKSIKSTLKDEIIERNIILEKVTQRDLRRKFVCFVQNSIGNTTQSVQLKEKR
The experiment can be described thus: SPR, Fc-IL-18Rα/β captured, heterogeneous ligand fit. As to the method:
as §1, §2
For orientation: In SPR one partner is held on a chip, and binding of the other changes the refractive index at the surface.
In turn, B3 yielded a dissociation constant Kd of 0.49 nM, a koff of 0.000311 s⁻¹ and a kon of 866000 M⁻¹ s⁻¹.
For B14 the same measures were 15.5 nM, 0.000589 s⁻¹ and 38100 M⁻¹ s⁻¹.
For B6 the same measures were 2.3 nM, 0.000816 s⁻¹ and 535000 M⁻¹ s⁻¹.
Molecule B7 registered a dissociation constant (Kd) of 1.24 nM, a dissociation rate constant (koff) of 0.00149 s⁻¹ and a kon of 1.21e+06 M⁻¹ s⁻¹.
For B8 the same measures were 1.01 nM, 0.0011 s⁻¹ and 1.09e+06 M⁻¹ s⁻¹.
B9 yielded a dissociation constant Kd of 0.66 nM, a koff of 0.000815 s⁻¹ and a kon of 1.24e+06 M⁻¹ s⁻¹.
The molecule B10 had a Kd of 0.49 nM, an off-rate (koff) of 0.000589 s⁻¹ and a kon of 1.21e+06 M⁻¹ s⁻¹.
Taken in the same sequence, the figures for B11 were 0.41 nM, 0.000467 s⁻¹ and 1.15e+06 M⁻¹ s⁻¹.
For B12 the same measures were 15.7 nM, 0.000618 s⁻¹ and 39400 M⁻¹ s⁻¹.
